B1: FliF(G217A) (natural protein, Salmonella enterica serovar Typhimurium)
chain: MSATASTATQPKPLEWLNRLRANPRIPLIVAGSAAVAIVVAMVLWAKTPDYRTLFSNLSDQDGGAIVAQLTQMNIPYRFANGSGAIEVPADKVHELRLRLAQQGLPKGGAVGFELLDQEKFGISQFSEQVNYQRALEGELARTIETLGPVKSARVHLAMPKPSLFVREQKSPSASVTVTLEPGRALDEGQISAVVHLVSSAVAGLPPGNVTLVDQSAHLLTQSNTSGRDLNDAQLKFANDVESRIQRRIEAILSPIVGNGNVHAQVTAQLDFANKEQTEEHYSPNGDASKATLRSRQLNISEQVGAGYPGGVPGALSNQPAPPNEAPIATPPTNQQNAQNTPQTSTSTNSNSAGPRSTQRNETSNYEVDRTIRHTKMNVGDIERLSVAVVVNYKTLADGKPLPLTADQMKQIEDLTREAMGFSDKRGDTLNVVNSPFSAVDNTGGELPFWQQQSFIDQLLAAGRWLLVLVVAWILWRKAVRPQLTRRVEEAKAAQEQAQVRQETEEAVEVRLSKDEQLQQRRANQRLGAEVMSQRIREMSDNDPRVVALVIRQWMSNDHE
B2: FliF(G217P) (natural protein, Salmonella enterica serovar Typhimurium)
chain: B1 chain with A217P
B3: FliF(G217W) (natural protein, Salmonella enterica serovar Typhimurium)
chain: B1 chain with A217W
B4: FliF(∆165–167) (natural protein, Salmonella enterica serovar Typhimurium)
chain: MSATASTATQPKPLEWLNRLRANPRIPLIVAGSAAVAIVVAMVLWAKTPDYRTLFSNLSDQDGGAIVAQLTQMNIPYRFANGSGAIEVPADKVHELRLRLAQQGLPKGGAVGFELLDQEKFGISQFSEQVNYQRALEGELARTIETLGPVKSARVHLAMPKPSLEQKSPSASVTVTLEPGRALDEGQISAVVHLVSSAVAGLPPGNVTLVDQSGHLLTQSNTSGRDLNDAQLKFANDVESRIQRRIEAILSPIVGNGNVHAQVTAQLDFANKEQTEEHYSPNGDASKATLRSRQLNISEQVGAGYPGGVPGALSNQPAPPNEAPIATPPTNQQNAQNTPQTSTSTNSNSAGPRSTQRNETSNYEVDRTIRHTKMNVGDIERLSVAVVVNYKTLADGKPLPLTADQMKQIEDLTREAMGFSDKRGDTLNVVNSPFSAVDNTGGELPFWQQQSFIDQLLAAGRWLLVLVVAWILWRKAVRPQLTRRVEEAKAAQEQAQVRQETEEAVEVRLSKDEQLQQRRANQRLGAEVMSQRIREMSDNDPRVVALVIRQWMSNDHE
B5: FliF(∆214–220) (natural protein, Salmonella enterica serovar Typhimurium)
chain: MSATASTATQPKPLEWLNRLRANPRIPLIVAGSAAVAIVVAMVLWAKTPDYRTLFSNLSDQDGGAIVAQLTQMNIPYRFANGSGAIEVPADKVHELRLRLAQQGLPKGGAVGFELLDQEKFGISQFSEQVNYQRALEGELARTIETLGPVKSARVHLAMPKPSLFVREQKSPSASVTVTLEPGRALDEGQISAVVHLVSSAVAGLPPGNVTLVTQSNTSGRDLNDAQLKFANDVESRIQRRIEAILSPIVGNGNVHAQVTAQLDFANKEQTEEHYSPNGDASKATLRSRQLNISEQVGAGYPGGVPGALSNQPAPPNEAPIATPPTNQQNAQNTPQTSTSTNSNSAGPRSTQRNETSNYEVDRTIRHTKMNVGDIERLSVAVVVNYKTLADGKPLPLTADQMKQIEDLTREAMGFSDKRGDTLNVVNSPFSAVDNTGGELPFWQQQSFIDQLLAAGRWLLVLVVAWILWRKAVRPQLTRRVEEAKAAQEQAQVRQETEEAVEVRLSKDEQLQQRRANQRLGAEVMSQRIREMSDNDPRVVALVIRQWMSNDHE
B6: FliF(∆221–227) (natural protein, Salmonella enterica serovar Typhimurium)
chain: B5 chain with T214D, N217G, T218H, S219L, G220L
B7: FliF (flagellar MS-ring protein), wild type (natural protein, Salmonella enterica serovar Typhimurium, UniProt P15928 1-560, looked up)
chain: B1 chain with A217G

These results are taken from publication PMC11739650 (Communications Biology, 2025).

Residue numbers refer to the chain shown, from its start. In names and notes the source's numbering stands. Several values for one entry are separate records, joined by “and”; a condition that tells them apart may be missing. Equal entries are not always repeated.

The first data set deals with the molecule itself. The data set can be described thus: negative-stain electron microscopy.
As for B1, the binding result is “binds”.

For B2, the binding result was “binds”. For B3, the binding result is listed as “binds”. As to B4, the binding result is “binds”. Same read-out and setting: the result for B5 reads “binds”; that for B6, “binds”.

A further data set deals with the molecule itself. Description: cryo-EM structure.
The term stoichiometry N denotes the number of molecules, sites or subunits per partner or assembly. For the protein B7, the “stoichiometry N” value was 33 and 34.
